The source of these data is patent US20240156915A1.

For this test, the target named is exenatide (Gila monster) (UniProt P26349).
exenatide (Gila monster), sequence (P26349 48-86): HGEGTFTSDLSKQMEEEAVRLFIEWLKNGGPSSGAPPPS

The substance pepsin (enzyme) registered a Residual content of exenatide in percent (%) of 0%.
